{"source": "patent US20190263905A1", "about": "(DINONA, published 2019)", "binders": {"B1": {"name": "anti-CD66c chimeric antibody 8F5 (antibody, human IgG1, V domains shown)", "VH": "EVQLQQSGPELVKPGASMKISCKASGYSFTDYTMNWVKQSHGKNLEWIGLINPFHGGTVSNQRFKVKATLTVDVSSNTAYMELLSLTSDDSAVYYCVRGDPVRHYYALAYWGQGTSVTVSS", "VL": "DIQMTQSPASLSASVGETVTITCGASENVYGTLNWYQRKQGKSPQLLIYGATNLADGMSSRFSGSGSGRQYSLKISSLHPDDVATYYCQNVLSAPYTFGGGTKLEII", "notes": "also called chimeric 8F5 antibody; chi 8F5"}, "B2": {"name": "recombinant humanized anti-CD66c antibody Protein ID 3058 (Vk8 + VH11) (antibody, human IgG1, V domains shown)", "VH": "QVQLVQSGAEVKKPGASVKISCKASGYSFTDYTMHWVKQAPGQNLEWIGLINPFGGSTSYAQKFKGRVTMTRDTSTNTAYMELSRLRSDDTAVYYCVRGDPVRHYYALAYWGQGTLVTVSS", "VL": "DIQMTQSPSTLSASVGDRVTITCRASENVYGTLNWYQRKPGKAPKLLIYGATNLADGMPSRFSGSGSGTEYTLTISSLQPDDFATYYCQNVLSAPYTFGGGTKLEIK", "notes": "also called hu 3058; #86"}, "B3": {"name": "recombinant humanized anti-CD66c antibody Protein ID 3007 (Vk7 + VH6) (antibody, human IgG1, V domains shown)", "VH": "QVQLVQSGAEVKKPGASMKISCKASGYSFTDYTMNWVKQAPGQNLEWIGLINPFHGGTVSNQRFKVKATLTVDVSTNTAYMELSRLRSDDTAVYYCVRGDPVRHYYALAYWGQGTLVTVSS", "VL": "B2 VL with R24G, M58V", "notes": "also called hu 3007; #43"}, "B4": {"name": "recombinant humanized anti-CD66c antibody Protein ID 3043 (Vk8 + VH6) (antibody, human IgG1, V domains shown)", "VH": "B3 VH", "VL": "B2 VL", "notes": "also called hu 3043; #71"}, "B5": {"name": "recombinant humanized anti-CD66c antibody Protein ID 2938 (Vk5 + VH7) (antibody, human IgG1, V domains shown)", "VH": "B3 VH with K38R, N44G", "VL": "B2 VL with R24G, N34A, M58V, T69R", "notes": "also called hu 2938"}}, "note": "Where a chain is given by its changes, count along the chain named."}
{"target": "T1, CEACAM1 antigen (Sino Biological, Inc.) (UniProt P13688 35-428)", "T1 construct": "Bought antigen coated on the ELISA plate; construct not described; also called CEACAM1 (CD66a) antigen; CD66a", "T1 sequence (looked up)": "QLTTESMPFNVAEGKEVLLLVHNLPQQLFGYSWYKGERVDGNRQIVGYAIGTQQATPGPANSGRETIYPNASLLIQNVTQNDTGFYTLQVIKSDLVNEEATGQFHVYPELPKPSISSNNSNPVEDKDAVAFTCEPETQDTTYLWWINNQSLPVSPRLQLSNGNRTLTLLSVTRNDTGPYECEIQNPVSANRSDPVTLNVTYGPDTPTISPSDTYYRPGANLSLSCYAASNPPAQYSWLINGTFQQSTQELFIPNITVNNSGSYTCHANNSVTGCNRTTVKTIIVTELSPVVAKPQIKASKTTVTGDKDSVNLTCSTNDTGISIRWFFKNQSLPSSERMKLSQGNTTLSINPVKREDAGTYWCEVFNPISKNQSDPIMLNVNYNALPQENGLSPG", "assay": "ELISA, coated CEACAM1 100 ng/well, antibody 1111.11 ng/ml", "procedure": "(§1) Antigen CD66c (CEACAM6; Sino Biological, Inc.) and CEACAM1 antigen (Sino Biological, Inc.) were coated on a 96-well plate at 100 ng per well and then blocked. The primary antibody was diluted serially three fold from 10 ug/ml at initial concentration and was bound at 37° C. for 1 hour, and goat anti-Human Ig-HRP conjugate (Jackson ImmunoResearch) as a secondary antibody was diluted 1:10,000 and incubated at 37° C. for 30 minutes. The washing was carried out at three times between each step, and the TMB reaction was performed, stopped with 1N H₂SO₄ solution at the same amount of TMB solution (100 ul) and then OD value was measured at 450 nm.\n(§2) As a result of the experiment, the binding affinities to CD66c antigen of the five kinds of recombinant humanized antibodies selected from among 96 kinds of recombinant humanized antibodies are shown in FIG. 4a, Table 12, FIG. 4b and Table 13. FIG. 4a and Table 12 show the binding capacity of the antibodies to CECACAM6 CD66c) antigen, and FIG. 4b and Table 13 are the results for the CEACAM1 (CD66a) antigen.", "units": {"OD 450 nm": "OD"}}
{"binder": "B1", "OD 450 nm": 1.21}
{"binder": "B2", "OD 450 nm": 0.19}
{"binder": "B3", "OD 450 nm": 1.06}
{"binder": "B4", "OD 450 nm": 1.17}
{"binder": "B5", "OD 450 nm": 0.21}
{"target": "T2, Antigen CD66c (CEACAM6; Sino Biological, Inc.) (UniProt P40199 35-320)", "T2 construct": "Bought antigen coated on the ELISA plate; construct not described; also called CD66c antigen; CECACAM6", "T2 sequence (looked up)": "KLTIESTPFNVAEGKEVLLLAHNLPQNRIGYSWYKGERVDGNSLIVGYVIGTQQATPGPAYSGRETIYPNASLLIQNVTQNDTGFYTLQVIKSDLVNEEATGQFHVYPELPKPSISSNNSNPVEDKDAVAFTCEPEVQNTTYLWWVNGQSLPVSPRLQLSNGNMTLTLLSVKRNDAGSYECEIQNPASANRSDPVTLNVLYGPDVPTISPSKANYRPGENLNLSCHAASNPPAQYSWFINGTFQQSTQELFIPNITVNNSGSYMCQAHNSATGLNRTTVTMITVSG", "assay": "ELISA, coated CEACAM6 100 ng/well, antibody 13.72 ng/ml", "procedure": "as §1, §2", "units": {"OD 450 nm": "OD"}}
{"binder": "B1", "OD 450 nm": 1.15}
{"binder": "B2", "OD 450 nm": 1.06}
{"binder": "B3", "OD 450 nm": 1.64}
{"binder": "B4", "OD 450 nm": 1.37}
{"binder": "B5", "OD 450 nm": 1.15}
{"target": "T1, CEACAM1 antigen (Sino Biological, Inc.)", "assay": "ELISA, coated CEACAM1 100 ng/well, antibody 10000.00 ng/ml", "procedure": "as §1, §2", "units": {"OD 450 nm": "OD"}}
{"binder": "B1", "OD 450 nm": 1.21}
{"binder": "B2", "OD 450 nm": 0.42}
{"binder": "B3", "OD 450 nm": 1.01}
{"binder": "B4", "OD 450 nm": 0.91}
{"binder": "B5", "OD 450 nm": 0.32}
{"target": "T3, CD66c (CEACAM6) on CD66c-positive A549 non-small-cell lung cancer cells (UniProt P40199 35-320, limits assumed)", "T3 construct": "whole, on cells; also called CD66c antigen; NCA-90", "T3 sequence (looked up)": "T2 sequence (looked up)", "assay": "flow cytometry on CD66c-positive A549 cells, mean fluorescence", "procedure": "Each expressed 96 recombinant humanized antibody was poured and reacted in a test tube containing the same amount ([…]) of CD66c-positive A549 non-small-cell lung cancer cell line at 4° C. for 30 minutes, washed with PBS, and treated with FITC-conjugated goat anti-Human IgG (DiNona Inc, Korea) was added and incubated at 4° C. for 15 minutes. After washing with PBS, the cells were analyzed with a flow cytometer (Stratedigm, S1000EXi) and the results are shown below.\nAmong the 96 recombinant humanized antibody candidates, eight were firstly selected based on the degree of expression, the presence of aggregation, and the degree of cell binding (Table 9 and Table 10, FIGS. 3A to 3E)."}
{"binder": "B1", "Mean": 619}
{"binder": "B2", "Mean": 645}
{"binder": "B3", "Mean": 565}
{"binder": "B4", "Mean": 686}
{"binder": "B5", "Mean": 611}
{"target": "T1, CEACAM1 antigen (Sino Biological, Inc.)", "assay": "ELISA, coated CEACAM1 100 ng/well, antibody 1.52 ng/ml", "procedure": "as §1, §2", "units": {"OD 450 nm": "OD"}}
{"binder": "B1", "OD 450 nm": 0.16}
{"binder": "B2", "OD 450 nm": 0.05}
{"binder": "B3", "OD 450 nm": 0.18}
{"binder": "B4", "OD 450 nm": 0.16}
{"binder": "B5", "OD 450 nm": 0.05}
{"target": "T2, Antigen CD66c (CEACAM6; Sino …)", "assay": "ELISA, coated CEACAM6 100 ng/well, antibody 0.17 ng/ml", "procedure": "as §1, §2", "units": {"OD 450 nm": "OD"}}
{"binder": "B1", "OD 450 nm": 0.4}
{"binder": "B2", "OD 450 nm": 0.37}
{"binder": "B3", "OD 450 nm": 0.53}
{"binder": "B4", "OD 450 nm": 0.41}
{"binder": "B5", "OD 450 nm": 0.3}
{"target": "T1, CEACAM1 antigen (Sino Biological, Inc.)", "assay": "ELISA, coated CEACAM1 100 ng/well, antibody 370.37 ng/ml", "procedure": "as §1, §2", "units": {"OD 450 nm": "OD"}}
{"binder": "B1", "OD 450 nm": 1.13}
{"binder": "B2", "OD 450 nm": 0.12}
{"binder": "B3", "OD 450 nm": 0.92}
{"binder": "B4", "OD 450 nm": 0.8}
{"binder": "B5", "OD 450 nm": 0.14}
{"target": "T2, Antigen CD66c (CEACAM6; Sino …)", "assay": "ELISA, coated CEACAM6 100 ng/well, antibody 0.51 ng/ml", "procedure": "as §1, §2", "units": {"OD 450 nm": "OD"}}
{"binder": "B1", "OD 450 nm": 0.41}
{"binder": "B2", "OD 450 nm": 0.38}
{"binder": "B3", "OD 450 nm": 0.64}
{"binder": "B4", "OD 450 nm": 0.49}
{"binder": "B5", "OD 450 nm": 0.36}
{"target": "T2, Antigen CD66c (CEACAM6; Sino …)", "assay": "ELISA, coated CEACAM6 100 ng/well, antibody 123.46 ng/ml", "procedure": "as §1, §2", "units": {"OD 450 nm": "OD"}}
{"binder": "B1", "OD 450 nm": 2.83}
{"binder": "B2", "OD 450 nm": 2.22}
{"binder": "B3", "OD 450 nm": 2.9}
{"binder": "B4", "OD 450 nm": 2.29}
{"binder": "B5", "OD 450 nm": 2.56}
{"target": "T2, Antigen CD66c (CEACAM6; Sino …)", "assay": "ELISA, coated CEACAM6 100 ng/well, antibody 41.15 ng/ml", "procedure": "as §1, §2", "units": {"OD 450 nm": "OD"}}
{"binder": "B1", "OD 450 nm": 2.02}
{"binder": "B2", "OD 450 nm": 1.38}
{"binder": "B3", "OD 450 nm": 2.17}
{"binder": "B4", "OD 450 nm": 1.73}
{"binder": "B5", "OD 450 nm": 1.72}
{"target": "T2, Antigen CD66c (CEACAM6; Sino …)", "assay": "ELISA, coated CEACAM6 100 ng/well, antibody 370.37 ng/ml", "procedure": "as §1, §2", "units": {"OD 450 nm": "OD"}}
{"binder": "B1", "OD 450 nm": 3.3}
{"binder": "B2", "OD 450 nm": 2.8}
{"binder": "B3", "OD 450 nm": 3.16}
{"binder": "B4", "OD 450 nm": 2.92}
{"binder": "B5", "OD 450 nm": 3.08}
